# Experiment: Phase I study: tolerability, DLT, MTD
# Assay type: in vivo
# Details: human
# Description: Doses of 160 mg/m^2 and 200 mg/m^2 were also administered. A dose of 160 mg/m^2 was identified as MTD and studies in this group was expanded. A dose of 200 mg/m^2 was identified as MAD. […] Study specific DLT criteria are listed below:
# All adverse events (AEs) were be evaluated according to the NCI-CTCAE v3.0 For AEs not listed in the NCI-CTCAE v3.0, severity were assessed by the investigator according to these criteria. […] Moderate events may cause some interference with the subject's functioning.
# [1] = repeated single dose every 21 days
substance,measurement,setting,value
BT062,tolerability,"20 mg/m^2, ten treatment cycles of 21 days",well tolerated
same,adverse side effects,"80 mg/m^2 four times, 21-day cycles",no adverse side effects were observed
same,dose limiting toxicity,200 mg/m^2,dose limiting toxicities
same,tolerability,"10 x 20, 5 x 40, 5 x 80, 6 x 160 mg/m^2, and 1 x 200 followed by 6 x 160 mg/m^2",well tolerated
same,maximum administered dose (MAD),[1],200 mg/m^2
same,maximum tolerable dose (MTD),[1],160 mg/m^2
same,dose limiting toxicity towards non-cancer/non-tumor cells expressing CD138,treatment regimes up to 120 mg/m^2,no dose limiting toxicity
